We go through 32 molecules from US20260144882A1 (BIO THERA SOLUTIONS, published 2026).

Positions count from the first letter of the chain named.

T1: human Nectin-4 extracellular antigen hNectin-4-His (human, UniProt Q96NY8 32-349)
T1 construct: C-terminal 8xHis tag included
T1 sequence: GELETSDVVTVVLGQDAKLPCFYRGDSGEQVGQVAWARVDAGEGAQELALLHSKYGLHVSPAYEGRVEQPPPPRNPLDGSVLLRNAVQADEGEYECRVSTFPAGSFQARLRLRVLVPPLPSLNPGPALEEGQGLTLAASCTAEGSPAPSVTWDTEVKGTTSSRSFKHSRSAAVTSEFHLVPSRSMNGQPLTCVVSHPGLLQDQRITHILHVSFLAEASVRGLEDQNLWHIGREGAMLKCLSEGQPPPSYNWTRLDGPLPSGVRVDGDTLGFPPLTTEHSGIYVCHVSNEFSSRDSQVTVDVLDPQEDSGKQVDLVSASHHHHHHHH

B1: 1F3-2E12 scFv (scFv, V domains shown)
VH: EVQLVESGGGLVQPGGSLRLSCAASGGNFTNSGMSWVRQAPGKGLEWVSGIKWSSDETYYADSVKGRFTISRDNSKNTLYLQMNSLRAEDTAVYYCARAELLAFDVYTASDYWGQGTLVTVSS
VL: DIQMTQSPSSLSASVGDRVTITCRASQGISSYLAWYQQKPGKAPKLLIYAASSLQSGVPSRFSGSGSGTDFTLTISSLQPEDFATYYCQQHYTTPPTFGQGTKVEIKR
notes: phage clone supernatant
B2: 1G8-2D4 scFv (scFv, V domains shown)
VH: EVQLVESGGGLVQPGGSLRLSCAASGYNFGGYAMSWVRQAPGKGLEWVSRISGTSGNNDYADSVKGRFTISRDNSKNTLYLQMNSLRAEDTAVYYCARQTEDRSYGYDLDYWGQGTLVTVSS
VL: B1 VL
notes: phage clone supernatant
B3: 1G8-1E6 scFv (scFv, V domains shown)
VH: EVQLVESGGGLVQPGGSLRLSCAASGYIFTDYSMSWVRQAPGKGLEWVSRIYTDGWEKDYADSVKGRFTISRDNSKNTLYLQMNSLRAEDTAVYYCARQTEDRSYGYDLDYWGQGTLVTVSS
VL: B1 VL
notes: phage clone supernatant
B4: 1G8-1F11 scFv (scFv, V domains shown)
VH: B2 VH with Y27D, N28T, G30S, G31S, G53Q, S55G, N57T, N58T
VL: B1 VL
notes: phage clone supernatant
B5: 1G8-1B7 scFv (scFv, V domains shown)
VH: B2 VH with N28S, G30S, G31N, G53A, T54W, S55G, G56S, N57T, D59N
VL: B1 VL
notes: phage clone supernatant
B6: 1F3-2G9 scFv (scFv, V domains shown)
VH: EVQLVESGGGLVQPGGSLRLSCAASGFTFGGYGMSWVRQAPGKGLEWVSWISAWDGSIYYADSVKGRFTISRDNSKNTLYLQMNSLRAEDTAVYYCARAELLAFDVYTASDYWGQGTLVTVSS
VL: B1 VL
notes: phage clone supernatant
B7: 1F3-2F3 scFv (scFv, V domains shown)
VH: EVQLVESGGGLVQPGGSLRLSCAASGFNFSDYGMSWVRQAPGKGLEWVSRIDWDGGNTRYADSVKGRFTISRDNSKNTLYLQMNSLRAEDTAVYYCARAELLAFDVYTASDYWGQGTLVTVSS
VL: B1 VL
notes: phage clone supernatant
B8: 1G8-1H1 scFv (scFv, V domains shown)
VH: B2 VH with Y27D, N28T, G30S, S52Y, G53P, T54Y, G56S, N57V, N58R
VL: B1 VL
notes: phage clone supernatant
B9: 1G8-1G3 scFv (scFv, V domains shown)
VH: B2 VH with Y27F, G31T, T54I, G56A, N57G, N58T, D59N
VL: B1 VL
notes: phage clone supernatant
B10: 1G8-1A12 scFv (scFv, V domains shown)
VH: EVQLVESGGGLVQPGGSLRLSCAASGGTFDTNAMSWVRQAPGKGLEWVSAISTGGDNKRYADSVKGRFTISRDNSKNTLYLQMNSLRAEDTAVYYCARQTEDRSYGYDLDYWGQGTLVTVSS
VL: B1 VL
notes: phage clone supernatant
B11: 1G8-1C8 scFv (scFv, V domains shown)
VH: B10 VH with G27F, T28S, D30G, T31S, N32S, T53G, G54S, G55S, N57S, K58P
VL: B1 VL
notes: phage clone supernatant
B12: 1G8-1G9 scFv (scFv, V domains shown)
VH: B2 VH with Y27F, G31D, Y32F, S52Y, G53S, T54G, S55D, G56D, N58A, D59S
VL: B1 VL
notes: phage clone supernatant
B13: 1G8-1E12 scFv (scFv, V domains shown)
VH: B2 VH with Y27F, G30T, G31S, G53A, T54H, S55K, G56W, N57D, N58A, D59S
VL: B1 VL
notes: phage clone supernatant
B14: 1G8-1D11 scFv (scFv, V domains shown)
VH: B3 VH with Y27D, D31G, S33A, Y52D, T53G, D54T, W56D, E57S, D59F
VL: B1 VL
notes: phage clone supernatant
B15: 1G8-1G5 scFv (scFv, V domains shown)
VH: B3 VH with I28N, D31T, Y32S, S33A, T53A, G55T, W56A, E57Y, K58N
VL: B1 VL
notes: phage clone supernatant
B16: 1G8-1B11 scFv (scFv, V domains shown)
VH: B2 VH with G30S, G31N, R50A, S52D, G53A, T54S, S55G, N57D, N58T, D59R
VL: B1 VL
notes: phage clone supernatant
B17: 1G8-1E8 scFv (scFv, V domains shown)
VH: B2 VH with Y27F, N28T, G30D, G53S, T54Y, G56W, N58P
VL: B1 VL
notes: phage clone supernatant
B18: 1G8-1C10 scFv (scFv, V domains shown)
VH: B2 VH with Y27F, G30S, G31D, A33S, S52K, G53A, T54S, N57G, N58S
VL: B1 VL
notes: phage clone supernatant
B19: 1G8-1C1 scFv (scFv, V domains shown)
VH: B3 VH with T30S, D31N, S33A, Y52S, D54G, G55F, W56A, E57G, K58P
VL: B1 VL
notes: phage clone supernatant
B20: 1F3-2G10 scFv (scFv, V domains shown)
VH: B7 VH with D31N, D52K, W53P, D54T, G55D, N57S, R59H
VL: B1 VL
notes: phage clone supernatant
B21: 1F3-2F6 scFv (scFv, V domains shown)
VH: B7 VH with N28T, D52S, W53Q, D54Y, N57G, T58I
VL: B1 VL
notes: phage clone supernatant
B22: 1G8-1A7 scFv (scFv, V domains shown)
VH: B10 VH with G27Y, T31S, N32Y, A50R, S52K, G54T, G55D, N57G, R59S
VL: B1 VL
notes: phage clone supernatant
B23: 1F3-2F1 scFv (scFv, V domains shown)
VH: B7 VH with F27D, N28I, S30T, D31G, G33S, R50G, D52Y, W53Q, D54T, G56S
VL: B1 VL
notes: phage clone supernatant
B24: 1G8-1H6 scFv (scFv, V domains shown)
VH: B2 VH with Y27F, G30S, Y32F, S52Y, G53P, G56S, N57E, N58S
VL: B1 VL
notes: phage clone supernatant
B25: 1G8-1F7 scFv (scFv, V domains shown)
VH: B10 VH with G27Y, T28S, D30Y, T31G, N32Y, S52D, T53A, G54I, D56G
VL: B1 VL
notes: phage clone supernatant
B26: 1G8-1E10 scFv (scFv, V domains shown)
VH: B10 VH with G27D, T28S, D30S, N32Y, A50R, T53G, G54S, N57G, R59D
VL: B1 VL
notes: phage clone supernatant
B27: 1F3-2H12 scFv (scFv, V domains shown)
VH: B1 VH with G27D, N28S, T30D, N31S, S54I, S55T, D56G, T58S
VL: B1 VL
notes: phage clone supernatant
B28: 1G8-1G12 scFv (scFv, V domains shown)
VH: B2 VH with G30T, G31S, Y32S, S52Y, G53S, T54I, N58T
VL: B1 VL
notes: phage clone supernatant
B29: 1F3-2H6 scFv (scFv, V domains shown)
VH: B7 VH with F27Y, N28T, D31S, D52K, W53S, N57D, R59H
VL: B1 VL
notes: phage clone supernatant
B30: 1G8-2A1 scFv (scFv, V domains shown)
VH: B2 VH with N28S, G30D, Y32F, T54H, S55D, G56W, N57S, N58S, D59S
VL: B1 VL
notes: phage clone supernatant
B31: 1G8-1A3 scFv (scFv, V domains shown)
VH: B2 VH with G31S, S52Y, G53P, T54G, G56W, N57S, N58P
VL: B1 VL
notes: phage clone supernatant
B32: 1G8-1D7 scFv (scFv, V domains shown)
VH: EVQLVESGGGLVQPGGSLRLSCAASGGSFSNYAMSWVRQAPGKGLEWVSWIDTTSAYASYADSVKGRFTISRDNSKNTLYLQMNSLRAEDTAVYYCARQTEDRSYGYDLDYWGQGTLVTVSS
VL: B1 VL
notes: phage clone supernatant

For the assay, the target named is T1, human Nectin-4 extracellular antigen …. Briefly: ELISA, phage scFv supernatant 1:50. As for the experimental part: The supernatants were diluted 50-fold, and the binding OD values of the diluted supernatants to hNectin-4-His were measured by ELISA. The samples were serially 3-fold diluted, and the EC₅₀ titer for the binding of the supernatants to the antigen was measured by ELISA. […] The light chain variable region sequence is set forth in SEQ ID NO: 25. The OD value is the measurement of ELISA, and the EC₅₀ value denotes the EC₅₀ value of the binding activity titer of the supernatant to the antigen.
For the molecule B1, the OD value was 1.52 OD.

In turn, B2 gave an OD value of 1.58 OD.

As for B3, the OD value was 1.48 OD.

Molecule B4 came in with an OD value of 1.6 OD.

As to B5, the OD value amounted to 1.56 OD.

Take B6: the OD value was determined as 1.38 OD.

As for B7, the OD value is 1.57 OD.

In turn, B8 returned an OD value of 1.4 OD.

The molecule B9 gave an OD value of 1.58 OD.

Regarding B10, the OD value amounted to 1.61 OD.

B11: the OD value was determined as 1.59 OD.

Regarding B12, the OD value turned out to be 1.55 OD.

B13 came in with an OD value of 1.61 OD.

In turn, B14 displayed an OD value of 1.59 OD.

B15: the OD value is 1.48 OD.

B16: the OD value is 1.58 OD.

Take B17: the OD value amounted to 1.55 OD.

For the molecule B18, the OD value is 1.61 OD.

On to B19, for which the OD value worked out at 1.5 OD.

For the molecule B20, the OD value amounted to 1.54 OD.

In the case of B21, the OD value came out at 1.52 OD.

Regarding B22, the OD value was found to be 1.57 OD.

B23 registered an OD value of 1.02 OD.

On to B24, for which the OD value is 1.58 OD.

B25 gave an OD value of 1.58 OD.

B26 gave an OD value of 1.6 OD.

Molecule B27 came in with an OD value of 1.59 OD.

Consider B28, for which the OD value turned out to be 1.55 OD.

Molecule B29 displayed an OD value of 1.31 OD.

Consider B30, for which the OD value was 1.6 OD.

On to B31, for which the OD value is 1.62 OD.

The molecule B32 registered an OD value of 1.49 OD.
